Data reported in patent US20020143164A1, “Ras activator nucleic acid molecules, polypeptides and methods of use” (priority 1999, published 2002).

Legend:
Ras = Ras activation assay in living cells, GRF4 and deletion mutants expressed in HEK-293T cells; type: cell-based, human; conditions: HEK-293T cells treated with 8-Br-cAMP
Method: HEK-293T cells were transfected with vector alone, GRF4 (WT), GRF4 lacking its cNMP-BD (ΔcNMP-BD) or its CDC25 domain (ΔCDC25), and then treated (or not) with 8-Br-cAMP. Cell lysates were then incubated with GST-Raf1-RBD to precipitate active Ras, and immunobloited with anti Ras antibodies as above (upper panel). Lower panels are controls for total endogenous Ras and transfected GRF4 or its mutants.
Flag, HA or myc tags was added to the N-terminus of full length GRF4 using PCR, and subcloned into the mammalian expression vector pCMV5 (Invitrogen). Mutants GRF4 with deletion of the CDC25 domain (residue 711-1007, GRF4DCDC25 or DCDC25 for short), the cNMP-BD (residue 134-254, DcNMP-BD), the PLPF motif in the PDZ domain (residue 396-399, -PLPF), or bearing mutations in the PDZ-binding motif (SAV to AAA), were generated using PCR. The GST-GRF4-cNMP-BD (residue 101-303) and GST-Carboxy-terminus (residue 1348-1499) were PCR-generated and cloned into pGEX-2T ( Pharmacia). The latter construct was used to generate a fusion protein (GST-GRF4C terminus) which was used to immunize rabbits for the generation of polyclonal anti GRF4 antibodies.
HEK-293T cells were transfected as above, serum starved overnight and then subjected to various treatments, as described in the text. […] GTP in the lysates was determined using activation specific probes as described. Briefly, to determined the levels of active Ras (Ras-GTP) in cell, sepharose-bound GST fusion protein of the Ras-binding domain (RBD) of Raf-1 (GST-Raf1-RBD; Upstate Biotechnology Inc.) was used to precipitate Ras-GTP from cell lysates, and the amount of Ras-GTP determined by immunoblotting with anti Ras antibodies (Quality Biotech). Similarly, to determine the level of Rap1-GTP in cell lysates, sepharose-bound GST fusion proteins of the Rap1-binding domain of RaIGDS (GST-RaIGDS-RBD) were used to precipitate Rap1-GTP, which was then detected on a Western blot using anti-Rap1 antibodies (Transduction Lab).

GRF4 = biological target: T1, GRF4 (Homo sapiens, UniProt Q9Y4G8, DEL134-254); assay: Activation of Ras and MAPK by cNMP analogues in GRF4-transfected HEK-293T cells; type: cell-based; conditions: HEK-293T cells
T1 construct: Flag, HA or myc tags was added to the N-terminus of full length GRF4 using PCR; expressed in transfected cells; host or cells: HEK-293T
T1 sequence (Q9Y4G8 with tags, fused parts or gaps DEL134-254): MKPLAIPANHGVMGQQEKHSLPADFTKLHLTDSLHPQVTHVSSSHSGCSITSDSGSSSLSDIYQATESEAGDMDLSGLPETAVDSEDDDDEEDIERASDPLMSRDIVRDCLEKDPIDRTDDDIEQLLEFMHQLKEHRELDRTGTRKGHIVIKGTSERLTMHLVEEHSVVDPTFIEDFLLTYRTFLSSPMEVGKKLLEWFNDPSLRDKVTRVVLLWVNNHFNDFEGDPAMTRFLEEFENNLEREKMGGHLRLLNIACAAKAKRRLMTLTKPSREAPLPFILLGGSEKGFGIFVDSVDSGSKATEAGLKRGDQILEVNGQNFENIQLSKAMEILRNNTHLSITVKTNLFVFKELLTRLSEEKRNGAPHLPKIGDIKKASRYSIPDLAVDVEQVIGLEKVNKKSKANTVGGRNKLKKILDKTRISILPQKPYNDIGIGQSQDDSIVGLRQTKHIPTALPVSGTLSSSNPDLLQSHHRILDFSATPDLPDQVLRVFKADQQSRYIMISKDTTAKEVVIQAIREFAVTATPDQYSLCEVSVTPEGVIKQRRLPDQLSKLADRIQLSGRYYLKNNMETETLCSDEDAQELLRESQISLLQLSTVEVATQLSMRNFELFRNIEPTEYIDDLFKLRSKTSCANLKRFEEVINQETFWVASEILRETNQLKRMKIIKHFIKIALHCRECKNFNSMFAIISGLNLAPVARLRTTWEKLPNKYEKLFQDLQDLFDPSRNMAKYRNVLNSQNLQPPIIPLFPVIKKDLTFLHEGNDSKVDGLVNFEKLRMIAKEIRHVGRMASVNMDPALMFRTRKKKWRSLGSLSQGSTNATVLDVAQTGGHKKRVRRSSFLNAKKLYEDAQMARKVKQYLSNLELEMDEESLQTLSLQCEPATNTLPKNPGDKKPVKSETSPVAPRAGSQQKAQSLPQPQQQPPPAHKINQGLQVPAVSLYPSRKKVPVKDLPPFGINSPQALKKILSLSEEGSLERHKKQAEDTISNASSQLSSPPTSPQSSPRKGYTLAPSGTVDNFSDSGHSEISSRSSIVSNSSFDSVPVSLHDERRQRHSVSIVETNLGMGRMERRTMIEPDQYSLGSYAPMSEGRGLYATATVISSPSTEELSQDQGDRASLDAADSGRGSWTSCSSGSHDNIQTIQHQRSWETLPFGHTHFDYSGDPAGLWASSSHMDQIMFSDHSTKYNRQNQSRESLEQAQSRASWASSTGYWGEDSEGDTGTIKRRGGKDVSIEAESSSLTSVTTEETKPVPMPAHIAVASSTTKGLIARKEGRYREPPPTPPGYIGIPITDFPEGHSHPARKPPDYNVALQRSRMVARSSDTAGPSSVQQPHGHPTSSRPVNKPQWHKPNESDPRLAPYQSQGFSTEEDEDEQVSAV
Method: The small GTPase Ras controls the MAPK pathway and exerts its effects on cellular processes primarily through this pathway. MAPK is a downstream kinase of Ras and thus, Ras activation leads to MAPK activation (FIG. 6A). Therefore, we show the GRF4 effects on MAPK activation using assays in which levels of active MAPK in cells is determined using antibodies recognizing phosphorylated (active) MAPK.

B1: ΔcNMP-BD: Mutant GRF4 with deletion of the cNMP-BD (residue 134-254) (protein)
chain: MKPLAIPANHGVMGQQEKHSLPADFTKLHLTDSLHPQVTHVSSSHSGCSITSDSGSSSLSDIYQATESEAGDMDLSGLPETAVDSEDDDDEEDIERASDPLMSRDIVRDCLEKDPIDRTDDDIEQLLEFMHQLKEHRELDRTGTRKGHIVIKGTSERLTMHLVEEHSVVDPTFIEDFLLTYRTFLSSPMEVGKKLLEWFNDPSLRDKVTRVVLLWVNNHFNDFEGDPAMTRFLEEFENNLEREKMGGHLRLLNIACAAKAKRRLMTLTKPSREAPLPFILLGGSEKGFGIFVDSVDSGSKATEAGLKRGDQILEVNGQNFENIQLSKAMEILRNNTHLSITVKTNLFVFKELLTRLSEEKRNGAPHLPKIGDIKKASRYSIPDLAVDVEQVIGLEKVNKKSKANTVGGRNKLKKILDKTRISILPQKPYNDIGIGQSQDDSIVGLRQTKHIPTALPVSGTLSSSNPDLLQSHHRILDFSATPDLPDQVLRVFKADQQSRYIMISKDTTAKEVVIQAIREFAVTATPDQYSLCEVSVTPEGVIKQRRLPDQLSKLADRIQLSGRYYLKNNMETETLCSDEDAQELLRESQISLLQLSTVEVATQLSMRNFELFRNIEPTEYIDDLFKLRSKTSCANLKRFEEVINQETFWVASEILRETNQLKRMKIIKHFIKIALHCRECKNFNSMFAIISGLNLAPVARLRTTWEKLPNKYEKLFQDLQDLFDPSRNMAKYRNVLNSQNLQPPIIPLFPVIKKDLTFLHEGNDSKVDGLVNFEKLRMIAKEIRHVGRMASVNMDPALMFRTRKKKWRSLGSLSQGSTNATVLDVAQTGGHKKRVRRSSFLNAKKLYEDAQMARKVKQYLSNLELEMDEESLQTLSLQCEPATNTLPKNPGDKKPVKSETSPVAPRAGSQQKAQSLPQPQQQPPPAHKINQGLQVPAVSLYPSRKKVPVKDLPPFGINSPQALKKILSLSEEGSLERHKKQAEDTISNASSQLSSPPTSPQSSPRKGYTLAPSGTVDNFSDSGHSEISSRSSIVSNSSFDSVPVSLHDERRQRHSVSIVETNLGMGRMERRTMIEPDQYSLGSYAPMSEGRGLYATATVISSPSTEELSQDQGDRASLDAADSGRGSWTSCSSGSHDNIQTIQHQRSWETLPFGHTHFDYSGDPAGLWASSSHMDQIMFSDHSTKYNRQNQSRESLEQAQSRASWASSTGYWGEDSEGDTGTIKRRGGKDVSIEAESSSLTSVTTEETKPVPMPAHIAVASSTTKGLIARKEGRYREPPPTPPGYIGIPITDFPEGHSHPARKPPDYNVALQRSRMVARSSDTAGPSSVQQPHGHPTSSRPVNKPQWHKPNESDPRLAPYQSQGFSTEEDEDEQVSAV
8-Br-cAMP-mediated activation of Ras via the construct, compared with wt-GRF4 (Ras): almost abolished | Activation of Ras and MAPK by the expressed mutant (GRF4): constitutively
